# Bridge positions count the residues as written; N and C are the ends. Ends that are not written are not given here. I, II: the chains in the order shown.
# T1: Human relaxin receptor on THP-1 cells (human, UniProt Q9HBX9 1-757)
# T1 construct: whole, on cells; also called human relaxin receptors
# T1 sequence (looked up): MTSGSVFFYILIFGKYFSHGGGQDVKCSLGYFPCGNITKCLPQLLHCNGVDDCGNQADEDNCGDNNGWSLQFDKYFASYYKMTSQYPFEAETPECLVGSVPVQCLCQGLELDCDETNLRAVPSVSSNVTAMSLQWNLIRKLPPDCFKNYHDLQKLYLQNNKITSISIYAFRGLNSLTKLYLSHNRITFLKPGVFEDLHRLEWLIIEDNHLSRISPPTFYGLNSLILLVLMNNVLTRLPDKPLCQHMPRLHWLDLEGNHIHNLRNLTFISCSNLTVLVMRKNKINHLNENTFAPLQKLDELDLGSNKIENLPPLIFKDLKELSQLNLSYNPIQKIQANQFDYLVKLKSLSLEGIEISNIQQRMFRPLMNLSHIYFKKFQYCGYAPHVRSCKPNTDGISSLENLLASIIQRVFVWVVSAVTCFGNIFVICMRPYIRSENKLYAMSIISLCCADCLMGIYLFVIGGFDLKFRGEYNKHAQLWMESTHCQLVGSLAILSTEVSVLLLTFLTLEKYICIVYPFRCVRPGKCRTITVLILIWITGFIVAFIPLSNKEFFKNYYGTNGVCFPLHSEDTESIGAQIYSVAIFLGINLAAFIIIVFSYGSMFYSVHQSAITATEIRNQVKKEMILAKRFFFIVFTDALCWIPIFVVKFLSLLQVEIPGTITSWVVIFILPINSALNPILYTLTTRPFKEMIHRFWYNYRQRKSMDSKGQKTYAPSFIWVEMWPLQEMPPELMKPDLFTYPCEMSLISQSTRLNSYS
# B1: Synthetic human H3 relaxin [hRlx-3 A(1-24) amide-B(1-27) amide] (ligand)
# chain 1: DVLAGLSSSCCKWGCSKSEISSLC-NH2
# chain 2: RAAPYGVRLCGREFIRAVIFTCGGSRW-NH2
# modifications: disulfide I:10-I:15, I:11-II:10, I:24-II:22
# notes: Made by solid phase synthesis; also called human 3 relaxin; synthetic H3 relaxin C-terminal amide derivative
# B2: Recombinant human H2 relaxin (ligand)
# chain 1: QLYSALANKCCHVGCTKRSLARFC
# chain 2: DSWMEEVIKLCGRELVRAQIAICGMSTWS
# modifications: not fully specified (bridges); ends and bridges not checked
# notes: mature; Gift from Connetics Corporation; also called human 2 relaxin
# B3: Synthetic human H1 relaxin (ligand)
# chain 1: RPYVALFEKCCLIGCTKRSLAKYC
# chain 2: KWKDDVIKLCGRELVRAQIAICGMSTWS
# notes: mature; Synthesized previously (Wade et al 1996); also called human 1 relaxin
# Molecular target: T1, Human relaxin receptor on THP-1 cells
# Assay: competition with 33P-labeled H2 (B33) relaxin (100 pM) for binding to THP-1 cells
# Description: THP-1 Cell Binding Assay—THP-1 cells were spun down and resuspended in binding buffer (20 mM HEPES, 50 mM NaCl, 1.5 mM CaCl₂, 1% BSA, 0.1 mg/ml lysine, 0.01% […], pH 7.5) (Parsell et al (1996) J. Biol. Chem. 271, 27936-27941) to give 2×10⁶ cells/well in a 96-well plate. The cells were incubated in binding buffer with ³³P-labeled H2 (B33) relaxin (100 pM: labeled as previously described (Tan et al (1999) Br. J. Pharmacol. 127, 91-98) at 25° C. for 90 min in the absence or presence of increasing concentrations of unlabeled H1, H2 and H3 relaxin (100 pM to 30 nM). Non-specific binding was defined with H2 relaxin (1 μM. Cells were harvested using a Packard 96-well plate cell harvester and Whatman GF/C glass fibre filters treated with 0.5% polyethylenimine. The filters were washed three times with modified binding buffer (20 mM HEPES, 50 mM NaCl, 1.5 mM CaCl₂), dried in a 37° C. oven, and the radioactivity counted by liquid scintillation spectrometry (TopCount™, Canberra Packard, Australia).
row,Binder,pKi
1,B1,7.5
2,B2,8.74
3,B3,8.9

# Molecular target: T1, Human relaxin receptor on THP-1 cells
# Assay: cell-based or functional assay
Binder,"cAMP production in THP-1 cells, EC50 [pM]","cAMP production in THP-1 cells, pEC50"
B1,2110,8.68
B2,214,9.67
B3,794,9.1
